Laboratory results from US20170210813A1 (Regeneron, published 2017).
One block for each binder: values may come before it.

Assays:
hPDGFRb.mmh [1] = molecular target: T1, hPDGFRb.mmh (human, UniProt P09619 33-531); test: Octet BLI cross-competition, 25 C; hPDGFRb.mmh on anti-Penta-His tips pre-saturated with mAb-1 H4H3374N (row 3)
T1 construct: Soluble monomeric construct; also called soluble human PDGFR-beta.mmh
Description: (§1) A cross-competition assay was conducted to assess the ability of select antibodies to compete with one another for binding to human PDGFR-beta. […] Each PDGFR-beta.mmh-coated sensor tip was saturated for 5 min with a first anti-PDGFR-beta antibody (Mab #1; 50 μg/mL). Next, each sensor tip was saturated with a solution of a second anti-PDGFR-beta antibody (Mab #2). The real time response of Mab #2 binding to PDGR-beta.mmh pre-complexed with Mab #1 was then monitored. All assays were performed at 25° C. with a flow rate of 1000 rpm on an Octet RED384 biosensor in Octet HBST buffer according to manufacturer's instructions (ForteBio Corp., Menlo Park, Calif.). Results are illustrated in FIG. 2.

hPDGFRb.mmh [2] = molecular target: T1, hPDGFRb.mmh; test: Octet BLI cross-competition, 25 C; hPDGFRb.mmh on anti-Penta-His tips pre-saturated with mAb-1 H4H3099S (row 6)
Description: as §1

hPDGFRb.mmh [3] = molecular target: T1, hPDGFRb.mmh; test: blocking ELISA, biot-hPDGFRb.mmh to coated PDGF-BB
Description: The equilibrated PDGFR-beta/antibody solutions were added to ligand-coated plates, allowed to incubate for 1 hr, and washed. Levels of bound biot-hPDGFR-beta.mmh were detected using HRP conjugated streptavidin. Data were analyzed using Prism software and IC₅₀ values were calculated as the amount of antibody required to achieve 50% reduction of hPDGFR-beta-mmh bound to ligand. Maximum blocking values were also calculated and reflect the ability of the antibody to block relative to baseline. The absorbance measured at the constant amount of 250 pM biot-hPDGFR-beta-mmh on the dose curve is defined as 0% blocking and the absorbance with no added PDGFR-beta is defined as 100%. The absorbance of the wells containing the highest antibody concentration determined the maximum blocking percent.

[4] = molecular target: T2, Macaca fascicularis PDGFRb.mmh (Macaca fascicularis); test: SPR, mAb captured, 25 C
T2 construct: Soluble monomeric construct; also called mfPDGFRb.mmh
T2 chain: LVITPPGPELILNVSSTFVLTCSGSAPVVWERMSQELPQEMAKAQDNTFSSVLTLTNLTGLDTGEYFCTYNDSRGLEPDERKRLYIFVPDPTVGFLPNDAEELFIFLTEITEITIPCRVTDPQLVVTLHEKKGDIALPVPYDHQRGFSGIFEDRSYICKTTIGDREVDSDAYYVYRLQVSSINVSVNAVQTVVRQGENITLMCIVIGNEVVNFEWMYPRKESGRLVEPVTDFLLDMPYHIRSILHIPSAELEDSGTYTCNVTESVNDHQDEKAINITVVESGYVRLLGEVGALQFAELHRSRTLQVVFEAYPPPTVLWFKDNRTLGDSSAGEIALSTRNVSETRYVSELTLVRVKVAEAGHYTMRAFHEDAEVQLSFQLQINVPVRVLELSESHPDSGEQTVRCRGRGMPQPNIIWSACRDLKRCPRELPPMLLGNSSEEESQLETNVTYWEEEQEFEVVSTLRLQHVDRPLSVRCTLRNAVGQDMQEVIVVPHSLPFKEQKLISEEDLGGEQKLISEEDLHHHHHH
Description: (§2) Antibodies, expressed as either mouse Fc (prefix H1M; H2M) or human Fc (prefix H4H), were captured on their respective anti-Fc sensor surfaces (Mab capture format). […] Kinetic association (kₐ) and dissociation (kd) rate constants were determined by processing and fitting the data to a 1:1 binding model using Scrubber 2.0 curve fitting software.

hPDGFRb.mmh [5] = molecular target: T1, hPDGFRb.mmh; test: SPR, mAb captured, 25 C
Description: as §2

human PDGFRb.hFc [6] = molecular target: T3, human PDGFRb.hFc (human); test: SPR, mAb captured, 25 C
T3 construct: Soluble dimeric construct with human Fc; also called hPDGFRb.hFc
Description: as §2

[7] = molecular target: T4, full length human PDGFR-beta on HEK293 cells (human, UniProt P09619 33-1106); test: cell-based or functional assay
[8] = molecular target: T2, Macaca fascicularis PDGFRb.mmh; test: SPR, mAb captured, 37 C
Description: as §2

hPDGFRb.mmh [9] = molecular target: T1, hPDGFRb.mmh; test: SPR, mAb captured, 37 C
Description: as §2

human PDGFRb.hFc [10] = molecular target: T3, human PDGFRb.hFc; test: SPR, mAb captured, 37 C
Description: as §2

[11] = molecular target: T4, full length human PDGFR-beta on HEK293 …; test: cell-based or functional assay; remark: listed apart in the source
hPDGFRb.mmh [12] = molecular target: T1, hPDGFRb.mmh; test: Octet BLI cross-competition, 25 C; hPDGFRb.mmh on anti-Penta-His tips pre-saturated with mAb-1 H4H3103S (row 4)
Description: as §1

hPDGFRb.mmh [13] = molecular target: T1, hPDGFRb.mmh; test: Octet BLI cross-competition, 25 C; hPDGFRb.mmh on anti-Penta-His tips pre-saturated with mAb-1 H4H3305N (row 8)
Description: as §1

hPDGFRb.mmh [14] = molecular target: T1, hPDGFRb.mmh; test: Octet BLI cross-competition, 25 C; hPDGFRb.mmh on anti-Penta-His tips pre-saturated with mAb-1 H4H3107S (row 7)
Description: as §1

hPDGFRb.mmh [15] = molecular target: T1, hPDGFRb.mmh; test: Octet BLI cross-competition, 25 C; hPDGFRb.mmh on anti-Penta-His tips pre-saturated with mAb-1 H4H3365N (row 2)
Description: as §1

hPDGFRb.mmh [16] = molecular target: T1, hPDGFRb.mmh; test: Octet BLI cross-competition, 25 C; hPDGFRb.mmh on anti-Penta-His tips pre-saturated with mAb-1 H4H3094P (row 5)
Description: as §1

hPDGFRb.mmh [17] = molecular target: T1, hPDGFRb.mmh; test: Octet BLI cross-competition, 25 C; hPDGFRb.mmh on anti-Penta-His tips pre-saturated with mAb-1 Control I (row 1)
Description: as §1

human PDGFRb.mFc = molecular target: T5, human PDGFRb.mFc (human); test: SPR, mAb captured, 25 C
T5 construct: Soluble dimeric construct with mouse Fc; also called hPDGFRb.mFc; soluble human PDGFR-beta.mFc
T5 chain: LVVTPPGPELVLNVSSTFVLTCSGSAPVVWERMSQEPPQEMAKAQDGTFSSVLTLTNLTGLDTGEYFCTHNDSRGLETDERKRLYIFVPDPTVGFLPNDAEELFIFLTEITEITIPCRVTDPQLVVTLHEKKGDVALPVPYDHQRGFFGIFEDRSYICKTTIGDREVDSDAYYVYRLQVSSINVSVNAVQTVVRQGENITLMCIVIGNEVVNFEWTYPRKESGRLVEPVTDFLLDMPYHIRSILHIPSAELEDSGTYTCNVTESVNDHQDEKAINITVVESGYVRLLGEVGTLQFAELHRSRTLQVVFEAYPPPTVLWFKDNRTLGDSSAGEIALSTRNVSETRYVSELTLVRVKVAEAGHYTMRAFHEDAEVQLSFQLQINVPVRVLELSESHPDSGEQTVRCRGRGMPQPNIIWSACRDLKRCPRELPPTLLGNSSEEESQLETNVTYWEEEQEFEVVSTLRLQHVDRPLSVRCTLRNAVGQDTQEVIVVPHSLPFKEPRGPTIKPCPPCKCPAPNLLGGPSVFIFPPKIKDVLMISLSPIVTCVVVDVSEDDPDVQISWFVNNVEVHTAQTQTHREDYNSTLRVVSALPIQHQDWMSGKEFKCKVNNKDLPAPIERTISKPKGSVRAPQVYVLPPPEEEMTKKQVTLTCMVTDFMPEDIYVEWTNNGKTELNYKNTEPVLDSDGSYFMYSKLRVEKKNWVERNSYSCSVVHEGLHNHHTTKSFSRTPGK
Description: as §2

Response of mAb-2 Binding to hPDGFRβ.mmh Pre-Complexed with mAb-1 (nm) (hPDGFRb.mmh [1]): 0.23 nm | Response of mAb-2 Binding to hPDGFRβ.mmh Pre-Complexed with mAb-1 (nm) (hPDGFRb.mmh [2]): -0.01 nm | % Maximum Blocking (hPDGFRb.mmh [3]): 86% | IC50 (hPDGFRb.mmh [3]): 0.45 nM | Kd [4]: 3.75 nM | koff [4]: 0.000108 s⁻¹ | kon [4]: 28800 M⁻¹ s⁻¹ | t1/2 [4]: 1.78 h | Kd (hPDGFRb.mmh [5]): 3.41 nM | koff (hPDGFRb.mmh [5]): 8.92e-05 s⁻¹ | kon (hPDGFRb.mmh [5]): 26100 M⁻¹ s⁻¹ | t1/2 (hPDGFRb.mmh [5]): 2.17 h | Kd (human PDGFRb.hFc [6]): 0.652 nM | koff (human PDGFRb.hFc [6]): 2.9e-05 s⁻¹ | kon (human PDGFRb.hFc [6]): 44500 M⁻¹ s⁻¹ | t1/2 (human PDGFRb.hFc [6]): 6.63 h | Percent Internalization (Relative to Control I) [7]: 66% | Kd [8]: 7.62 nM | koff [8]: 0.000392 s⁻¹ | kon [8]: 51400 M⁻¹ s⁻¹ | t1/2 [8]: 0.483 h | Kd (hPDGFRb.mmh [9]): 6.65 nM | koff (hPDGFRb.mmh [9]): 0.000339 s⁻¹ | kon (hPDGFRb.mmh [9]): 50900 M⁻¹ s⁻¹ | t1/2 (hPDGFRb.mmh [9]): 0.567 h | Kd (human PDGFRb.hFc [10]): 0.632 nM | koff (human PDGFRb.hFc [10]): 4.5e-05 s⁻¹ | kon (human PDGFRb.hFc [10]): 71300 M⁻¹ s⁻¹ | t1/2 (human PDGFRb.hFc [10]): 4.27 h | IC50, blocking PDGF-BB (250 pM) activation, SRE-luciferase [11]: 6.8e-10 M | IC50, blocking PDGF-DD (400 pM) activation, SRE-luciferase [11]: 6.6e-10 M | Response of mAb-2 Binding to hPDGFRβ.mmh Pre-Complexed with mAb-1 (nm) (hPDGFRb.mmh [12]): 0.24 nm | Response of mAb-2 Binding to hPDGFRβ.mmh Pre-Complexed with mAb-1 (nm) (hPDGFRb.mmh [13]): 0.01 nm | Response of mAb-2 Binding to hPDGFRβ.mmh Pre-Complexed with mAb-1 (nm) (hPDGFRb.mmh [14]): -0.01 nm | Response of mAb-2 Binding to hPDGFRβ.mmh Pre-Complexed with mAb-1 (nm) (hPDGFRb.mmh [15]): 0.24 nm | Response of mAb-2 Binding to hPDGFRβ.mmh Pre-Complexed with mAb-1 (nm) (hPDGFRb.mmh [16]): 0.27 nm | Response of mAb-2 Binding to hPDGFRβ.mmh Pre-Complexed with mAb-1 (nm) (hPDGFRb.mmh [17]): 0.2 nm
B1: H4H3310N (antibody, human IgG4, V domains shown)
VH: EVQLLESGGDLVQPGGSLRLSCAASGITFSSFAMSWVRQAPGKGLEWVSTVSVSAGITYYADSVKGRFTISRDNSKNTLYLQMNSLRAEDTAIYYCAKSSCTTNSCPAYFDYWGLGTLVTVSS
VL: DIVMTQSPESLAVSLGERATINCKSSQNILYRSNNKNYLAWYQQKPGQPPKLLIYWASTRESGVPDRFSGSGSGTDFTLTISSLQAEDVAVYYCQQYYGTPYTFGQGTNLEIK
notes: human IgG4 Fc (H4H prefix)

% Maximum Blocking (hPDGFRb.mmh [3]): 79% | IC50 (hPDGFRb.mmh [3]): 0.13 nM | Kd [4]: 30 nM | koff [4]: 0.000185 s⁻¹ | kon [4]: 7000 M⁻¹ s⁻¹ | t1/2 [4]: 1.05 h | Kd (hPDGFRb.mmh [5]): 7.41 nM | koff (hPDGFRb.mmh [5]): 0.000341 s⁻¹ | kon (hPDGFRb.mmh [5]): 46100 M⁻¹ s⁻¹ | t1/2 (hPDGFRb.mmh [5]): 0.567 h | Kd (human PDGFRb.mFc): 0.313 nM | koff (human PDGFRb.mFc): 3.7e-05 s⁻¹ | kon (human PDGFRb.mFc): 118000 M⁻¹ s⁻¹ | t1/2 (human PDGFRb.mFc): 5.22 h | Kd (hPDGFRb.mmh [9]): 6.17 nM | koff (hPDGFRb.mmh [9]): 0.000844 s⁻¹ | kon (hPDGFRb.mmh [9]): 137000 M⁻¹ s⁻¹ | t1/2 (hPDGFRb.mmh [9]): 0.233 h | IC50, blocking PDGF-BB (250 pM) activation, SRE-luciferase [11]: 1.8e-10 M | IC50, blocking PDGF-DD (400 pM) activation, SRE-luciferase [11]: 1.7e-10 M
B2: H2M3368N (antibody, V domains shown)
VH: QVQLQQWGAGLLKPSETLSLTCAVYGGSFSGYYWTWIRQSPGKGLEWMGEISHRGTTNYNPSLKSRLTISLDTSNNHFSLKLSSVTAADTAVYYCAREERLGMGYDYFGLDVWGQGTTVTVSS
VL: EIVLTQSPATLSLSPGERATLSCRASQSVSTYLTWYQQKPGQAPRLLIYDASNRATGIPARFSGSGSGTDFTLTISSLEPEDCAVYYCQQRSIWITFGQGTRLEIK
notes: mouse Fc (H2M prefix; isotype not spelled out)
